The values that follow come from patent US20230366033A1 (University of Texas, published 2023).

A value given as a limit tells only on which side of the number the result lay.

Assay [1] deals with T1, GRB2-SH2 domain, purified, Atto488-labelled (UniProt P62993 60-152, limits assumed, Atto488 label).
T1 construct: domain: SH2; Individual GRB2 domains generated as described before (Ahmed et al., 2010)
The assay is described as follows: MST; 100 nM Atto488-labelled GRB2-SH2 domain, peptide titrated; unphosphorylated MRE11 peptide.
Experimental: (§1) Microscale thermophoresis. […] The Kd values were measured using the Monolith NT.115 system (Nano Temper). […] The samples were loaded into silica capillaries (Polymicro Technologies) after incubation at room temperature for 15 min. Measurements were performed at 22° C. using 20% LED power and 40% IR-laser power. Measurements were also carried out using 20% and 60% IR-laser power for comparison. Data analyses were performed using Nano Temper Analysis software using the Kd curve fitting function. Raw data were exported and fitting curves were generated using Prism 8 (GraphPad Software) for presentation.

The target in assay [2] is T2, GRB2 K109R mutant, bacterially expressed and purified (UniProt P62993 1-217, Atto488 label in MST).
T2 construct: domain: full-length; also called K109RGRB2; K109R GRB2 mutant
Put plainly: MST, 100 nM Atto488-labelled K109R GRB2, peptide titrated.
Experimental: as §1

Assay [3] concerns the target T3, Flag-tagged POLQ (polymerase theta) overexpressed in HEK293T cells (UniProt O75417 1-2590, limits assumed).
T3 construct: also called Flag-POLQ; not shown: Flag tag
Put plainly: Flag immunoprecipitation from HEK293T cells with or without 5 Gy IR, western blot [panel C]. On the technique in general: A western blot detects proteins with antibodies after separation by electrophoresis.

Assay [4] concerns the target T4, Flag-RAD50 expressed in HEK293T cells (UniProt Q92878 1-1312, limits assumed).
T4 construct: not shown: Flag tag
T4 sequence (looked up): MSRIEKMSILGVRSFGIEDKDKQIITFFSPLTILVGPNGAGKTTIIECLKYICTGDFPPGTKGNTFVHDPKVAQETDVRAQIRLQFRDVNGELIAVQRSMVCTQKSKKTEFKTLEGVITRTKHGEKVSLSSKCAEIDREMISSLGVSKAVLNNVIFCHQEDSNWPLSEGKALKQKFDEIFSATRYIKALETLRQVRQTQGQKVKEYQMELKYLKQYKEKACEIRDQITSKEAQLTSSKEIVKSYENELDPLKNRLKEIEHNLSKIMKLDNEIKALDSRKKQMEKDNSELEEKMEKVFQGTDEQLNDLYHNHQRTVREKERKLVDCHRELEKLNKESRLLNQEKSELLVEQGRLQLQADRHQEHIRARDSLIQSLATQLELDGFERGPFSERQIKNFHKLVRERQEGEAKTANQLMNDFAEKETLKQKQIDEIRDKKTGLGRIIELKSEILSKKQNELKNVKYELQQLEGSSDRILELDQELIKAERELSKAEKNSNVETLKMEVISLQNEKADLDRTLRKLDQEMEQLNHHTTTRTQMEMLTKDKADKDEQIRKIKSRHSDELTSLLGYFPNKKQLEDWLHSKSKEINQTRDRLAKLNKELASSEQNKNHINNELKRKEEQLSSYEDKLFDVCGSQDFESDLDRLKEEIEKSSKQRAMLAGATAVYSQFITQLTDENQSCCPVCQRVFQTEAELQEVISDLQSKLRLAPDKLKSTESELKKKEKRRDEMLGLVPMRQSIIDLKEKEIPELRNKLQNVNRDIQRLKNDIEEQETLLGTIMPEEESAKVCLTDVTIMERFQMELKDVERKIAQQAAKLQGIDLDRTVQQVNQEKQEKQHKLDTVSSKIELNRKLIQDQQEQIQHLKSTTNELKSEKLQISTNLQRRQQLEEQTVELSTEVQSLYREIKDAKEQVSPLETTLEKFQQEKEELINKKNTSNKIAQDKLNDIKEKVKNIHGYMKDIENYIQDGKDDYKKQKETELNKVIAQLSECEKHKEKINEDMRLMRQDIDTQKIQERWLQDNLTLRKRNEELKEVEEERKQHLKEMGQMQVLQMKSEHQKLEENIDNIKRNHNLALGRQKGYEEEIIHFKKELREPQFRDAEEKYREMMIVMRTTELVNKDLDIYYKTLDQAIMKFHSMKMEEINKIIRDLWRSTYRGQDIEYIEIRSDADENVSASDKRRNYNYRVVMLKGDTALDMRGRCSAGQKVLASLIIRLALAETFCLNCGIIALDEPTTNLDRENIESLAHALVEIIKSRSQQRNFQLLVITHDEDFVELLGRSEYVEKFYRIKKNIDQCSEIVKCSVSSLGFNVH
The assay is described as follows: Flag-M2 immunoprecipitation from HEK293T cells co-transfected with RFP-GRB2, western blot [panel E].

In assay [5] the target is T5, RPA70, endogenous, in HEK293T cell extracts (UniProt P27694 1-616).
T5 construct: also called RPA1
The assay is described as follows: GST pull-down from HEK293T cell extracts, western blot [panel B].

Assay [6] addresses T6, Human MRE11 core (residues 1-411), bacterially expressed and purified (human, UniProt P49959 1-411).
T6 construct: range 1-411; the only purified MRE11 described is the 1-411 core; also called human MRE11 (residue 1-411); bacterially purified MRE11
T6 sequence (looked up): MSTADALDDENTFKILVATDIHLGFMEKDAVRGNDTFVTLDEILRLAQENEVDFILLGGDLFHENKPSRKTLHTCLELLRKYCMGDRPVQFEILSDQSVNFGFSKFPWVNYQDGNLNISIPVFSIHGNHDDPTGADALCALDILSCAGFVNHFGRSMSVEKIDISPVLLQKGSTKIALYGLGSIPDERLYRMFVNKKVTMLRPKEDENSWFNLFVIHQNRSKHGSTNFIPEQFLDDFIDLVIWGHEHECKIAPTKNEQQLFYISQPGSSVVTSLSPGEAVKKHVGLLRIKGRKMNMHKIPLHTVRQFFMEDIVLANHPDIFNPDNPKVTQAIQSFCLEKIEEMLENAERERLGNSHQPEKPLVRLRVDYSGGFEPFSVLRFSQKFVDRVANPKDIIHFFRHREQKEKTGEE
The assay is described as follows: GST pull-down of bacterially expressed, purified human MRE11, western blot [panel C].

T3 sequence (O75417 whole entry): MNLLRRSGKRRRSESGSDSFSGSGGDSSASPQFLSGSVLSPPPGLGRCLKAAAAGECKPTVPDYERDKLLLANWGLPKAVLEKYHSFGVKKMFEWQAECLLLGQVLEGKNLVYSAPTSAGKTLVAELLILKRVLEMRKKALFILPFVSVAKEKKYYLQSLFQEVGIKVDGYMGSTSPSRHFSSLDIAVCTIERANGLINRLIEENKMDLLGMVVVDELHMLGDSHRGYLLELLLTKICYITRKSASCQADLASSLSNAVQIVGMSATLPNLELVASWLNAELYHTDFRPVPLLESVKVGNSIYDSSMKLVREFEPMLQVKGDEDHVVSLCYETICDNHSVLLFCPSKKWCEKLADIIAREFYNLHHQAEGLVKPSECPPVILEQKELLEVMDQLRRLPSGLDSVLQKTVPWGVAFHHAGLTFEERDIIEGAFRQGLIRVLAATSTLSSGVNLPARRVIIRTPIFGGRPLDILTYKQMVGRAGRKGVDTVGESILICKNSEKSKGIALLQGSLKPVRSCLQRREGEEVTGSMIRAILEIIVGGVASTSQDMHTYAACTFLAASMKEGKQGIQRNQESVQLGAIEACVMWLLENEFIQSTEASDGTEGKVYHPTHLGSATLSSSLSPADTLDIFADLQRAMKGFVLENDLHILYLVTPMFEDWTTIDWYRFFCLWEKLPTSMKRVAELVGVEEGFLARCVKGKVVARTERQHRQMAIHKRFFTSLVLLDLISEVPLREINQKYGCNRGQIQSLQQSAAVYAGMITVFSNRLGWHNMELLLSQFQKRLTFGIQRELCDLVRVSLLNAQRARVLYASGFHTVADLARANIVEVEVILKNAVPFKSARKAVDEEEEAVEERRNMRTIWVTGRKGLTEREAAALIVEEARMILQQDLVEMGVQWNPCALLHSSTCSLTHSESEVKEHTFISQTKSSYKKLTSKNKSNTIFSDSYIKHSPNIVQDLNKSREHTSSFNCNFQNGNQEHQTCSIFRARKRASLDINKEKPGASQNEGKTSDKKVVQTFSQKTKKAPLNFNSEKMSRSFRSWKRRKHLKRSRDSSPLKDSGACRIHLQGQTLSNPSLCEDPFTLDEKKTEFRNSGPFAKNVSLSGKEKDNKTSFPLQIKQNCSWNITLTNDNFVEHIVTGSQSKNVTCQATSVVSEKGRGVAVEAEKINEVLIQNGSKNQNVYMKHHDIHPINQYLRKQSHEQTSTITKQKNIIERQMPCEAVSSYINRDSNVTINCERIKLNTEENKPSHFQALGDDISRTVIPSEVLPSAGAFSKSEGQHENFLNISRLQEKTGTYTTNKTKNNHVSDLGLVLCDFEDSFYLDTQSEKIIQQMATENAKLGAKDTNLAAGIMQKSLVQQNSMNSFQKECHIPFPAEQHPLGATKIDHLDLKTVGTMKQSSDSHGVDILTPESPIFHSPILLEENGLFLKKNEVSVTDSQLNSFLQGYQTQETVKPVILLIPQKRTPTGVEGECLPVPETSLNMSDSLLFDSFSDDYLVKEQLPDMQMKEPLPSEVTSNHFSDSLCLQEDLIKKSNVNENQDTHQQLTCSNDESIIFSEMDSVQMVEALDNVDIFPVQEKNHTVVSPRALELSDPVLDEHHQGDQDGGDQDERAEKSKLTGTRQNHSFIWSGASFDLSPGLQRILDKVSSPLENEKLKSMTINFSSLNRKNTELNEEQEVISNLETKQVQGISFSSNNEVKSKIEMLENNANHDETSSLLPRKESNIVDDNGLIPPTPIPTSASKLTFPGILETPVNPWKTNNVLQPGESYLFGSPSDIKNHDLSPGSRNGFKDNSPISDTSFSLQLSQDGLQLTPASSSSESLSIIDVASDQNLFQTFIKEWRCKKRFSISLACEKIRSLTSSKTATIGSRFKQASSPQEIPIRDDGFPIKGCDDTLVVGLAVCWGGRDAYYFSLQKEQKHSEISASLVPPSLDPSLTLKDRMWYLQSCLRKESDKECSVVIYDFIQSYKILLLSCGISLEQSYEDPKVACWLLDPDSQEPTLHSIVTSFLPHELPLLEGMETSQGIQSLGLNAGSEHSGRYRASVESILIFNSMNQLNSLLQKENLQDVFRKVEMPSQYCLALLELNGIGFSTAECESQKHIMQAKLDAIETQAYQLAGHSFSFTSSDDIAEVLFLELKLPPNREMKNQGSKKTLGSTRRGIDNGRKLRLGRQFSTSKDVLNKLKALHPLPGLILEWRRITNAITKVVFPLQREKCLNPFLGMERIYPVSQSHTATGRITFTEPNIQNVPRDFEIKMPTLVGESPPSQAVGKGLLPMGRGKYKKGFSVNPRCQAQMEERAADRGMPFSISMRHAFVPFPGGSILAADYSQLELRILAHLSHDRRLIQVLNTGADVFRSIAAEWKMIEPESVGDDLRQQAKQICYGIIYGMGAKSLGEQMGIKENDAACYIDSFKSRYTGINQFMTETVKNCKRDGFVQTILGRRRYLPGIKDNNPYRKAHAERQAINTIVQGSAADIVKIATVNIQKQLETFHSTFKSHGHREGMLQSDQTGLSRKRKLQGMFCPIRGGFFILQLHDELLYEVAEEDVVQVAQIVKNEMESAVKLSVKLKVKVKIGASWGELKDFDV

As for WVNYQDGNLN [MRE11 peptide WVNYQDGNLN], the results for the dissociation constant (Kd) in assay [1] and in assay [2] were 33 µM and greater than 200 µM, respectively.

B1: MRE11, endogenous, in extracts of human cell lines (HEK293T, HeLa, U2OS) (enzyme, UniProt P49959 2-708, looked up)
chain: STADALDDENTFKILVATDIHLGFMEKDAVRGNDTFVTLDEILRLAQENEVDFILLGGDLFHENKPSRKTLHTCLELLRKYCMGDRPVQFEILSDQSVNFGFSKFPWVNYQDGNLNISIPVFSIHGNHDDPTGADALCALDILSCAGFVNHFGRSMSVEKIDISPVLLQKGSTKIALYGLGSIPDERLYRMFVNKKVTMLRPKEDENSWFNLFVIHQNRSKHGSTNFIPEQFLDDFIDLVIWGHEHECKIAPTKNEQQLFYISQPGSSVVTSLSPGEAVKKHVGLLRIKGRKMNMHKIPLHTVRQFFMEDIVLANHPDIFNPDNPKVTQAIQSFCLEKIEEMLENAERERLGNSHQPEKPLVRLRVDYSGGFEPFSVLRFSQKFVDRVANPKDIIHFFRHREQKEKTGEEINFGKLITKPSEGTTLRVEDLVKQYFQTAEKNVQLSLLTERGMGEAVQEFVDKEEKDAIEELVKYQLEKTQRFLKERHIDALEDKIDEEVRRFRETRQKNTNEEDDEVREAMTRARALRSQSEESASAFSADDLMSIDLAEQMANDSDDSISAATNKGRGRGRGRRGGRGQNSASRGGSQRGRADTGLETSTRSRNSKTAVSASRNMSIIDAFKSTRQQPSRNVTTKNYSEVIEVDESDVEEDIFPTTSKTDQRWSSTSSSKIMSQSQVSKGVDFESSEDDDDDPFMNTSSLRRNRR
Take B1: the binding result in assay [3] and in assay [4] was “binds” each time.

B2: GST-fused GRB2 C-terminal SH3 (cSH3) domain (other, UniProt P62993 156-217, looked up)
chain: QQPTYVQALFDFDPQEDGELGFRRGDFIHVMDNSDPNWWKGACHGQTGMFPRNYVTPVNRNV
notes: domain: C-terminal (cSH3); not shown: glutathione S-transferase (GST)
As to B2, the binding result in assay [5] is listed as “no binding”.

B3: GST-fused GRB2 N-terminal SH3 (nSH3) domain (other, UniProt P62993 1-58, looked up)
chain: MEAIAKYDFKATADDELSFKRGDILKVLNEECDQNWYKAELNGKDGFIPKNYIEMKPH
notes: domain: N-terminal SH3 (nSH3); not shown: glutathione S-transferase (GST)
For B3, the binding result in assay [6] is on record as “no binding”.

One may read the Kd as a measure of binding affinity in units of concentration.
